Measured values reported in patent publication US20210284709A1 (JUNO THERAPEUTICS, published 2021).
Changes are numbered by the printed parent chain.

B1: TCR 43 (codon-optimized, cysteine-modified) (TCR, V domains shown)
V domain 1: QKEVEQNSGPLSVPEGAIASLNCTYSDRGSQSFFWYRQYSGKSPELIMFIYSNGDKEDGRFTAQLNKASQYVSLLIRDSQPSDSATYLCAVNVPTSGTYKYIFGTGTRLKVLA
V domain 2: EPEVTQTPSHQVTQMGQEVILRCVPISNHLYFYWYRQILGQKVEFLVSFYNNEISEKSEIFDDQFSVERPDGSNFTLKIRSTKLEDSAMYFCASTPRDSYEQYFGPGTRLTVTE
B2: TCR 36 (codon-optimized, cysteine-modified) (TCR, V domains shown)
V domain 1: RKEVEQDPGPFNVPEGATVAFNCTYSNSASQSFFWYRQDCRKEPKLLMSVYSSGNEDGRFTAQLNRASQYISLLIRDSKLSDSATYLCVVNRDNYGQNFVFGPGTRLSVLP
V domain 2: B1 V domain 2 with S94M, P96G, D98S, S99N
B3: TCR 40 (codon-optimized, cysteine-modified) (TCR, V domains shown)
V domain 1: GQQVMQIPQYQHVQEGEDFTTYCNSSTTLSNIQWYKQRPGGHPVFLIQLVKSGEVKKQKRLTFQFGEAKKNSSLHITATQTTDVGTYFCAGRNNFNKFYFGSGTKLNVKP
V domain 2: B1 V domain 2 with S94I, P96A, D98S
B4: TCR 49 (codon-optimized, cysteine-modified) (TCR, V domains shown)
V domain 1: B1 V domain 1 with V93I, P94G
V domain 2: B1 V domain 2 with D98Y
B5: TCR 33 (codon-optimized, cysteine-modified) (TCR, V domains shown)
V domain 1: B1 V domain 1 with V93A, P94H, T95H, S96T, T98G, Y99F, Y101T, T105A, K110F, L112K
V domain 2: B1 V domain 2 with S99T
B6: TCR 37 (codon-optimized, cysteine-modified) (TCR, V domains shown)
V domain 1: ELKVEQNPLFLSMQEGKNYTIYCNYSTTSDRLYWYRQDPGKSLESLFVLLSNGAVKQEGRLMASLDTKARLSTLHITAAVHDLSATYFCAGYSGAGSYQLTFGKGTKLSVIP
V domain 2: GAGVSQSPRYKVAKRGQDVALRCDPISGHVSLFWYQQALGQGPEFLTYFQNEAQLDKSGLPSDRFFAERPEGSVSTLKIQRTQQEDSAVYLCASSLLLGAYGYTFGSGTRLTVVE
B7: TCR 34 (codon-optimized, cysteine-modified) (TCR, V domains shown)
V domain 1: ELKVEQNPLFLSMQEGKNYTIYCNYSTTSDRLYWYRQDPGKSLESLFVLLSNGAVKQEGRLMASLDTKARLSTLHITAAVHDLSATYFCAVSGTYKYIFGTGTRLKVLA
V domain 2: ETGVTQSPTHLIKTRGQQVTLRCSSQSGHNTVSWYQQALGQGPQFIFQYYREEENGRGNFPPRFSGLQFPNYSSELNVNALELDDSALYLCASSSYAGSYEQYFGPGTRLTVTE
B8: TCR 35 (codon-optimized, cysteine-modified) (TCR, V domains shown)
V domain 1: KDQVFQPSTVASSEGAVVEIFCNHSVSNAYNFFWYLHFPGCAPRLLVKGSKPSQQGRYNMTYERFSSSLLILQVREADAAVYYCAVAGDYKLSFGAGTTVTVRA
V domain 2: DSGVTQTPKHLITATGQRVTLRCSPRSGDLSVYWYQQSLDQGLQFLIQYYNGEERAKGNILERFSAQQFPDLHSELNLSSLELGDSALYFCASTTSGDSSYNEQFFGPGTRLTVLE
B9: TCR 39 (codon-optimized, cysteine-modified) (TCR, V domains shown)
V domain 1: GQQLNQSPQSMFIQEGEDVSMNCTSSSIFNTWLWYKQEPGEGPVLLIALYKAGELTSNGRLTAQFGITRKDSFLNISASIPSDVGIYFCAGYSSSNDYKLSFGAGTTVTVRA
V domain 2: EPEVTQTPSHQVTQMGQEVILRCVPISNHLYFYWYRQILGQKVEFLVSFYNNEISEKSEIFDDQFSVERPDGSNFTLKIRSTKLEDSAMYFCASTPRDRGKEAFFGQGTRLTVVE

Each binder was assayed against T1, HLA-A2/E7(11-19) tetramer (human; HPV 16) (assay: flow cytometry, tetramer + anti-CD8; transfected mix of CD8- and CD8+ Jurkat-derived cells;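 also: cells transiently transfected with TCR-encoding plasmids, analysed 48 h afterwards by co-staining with HLA-A*02:01 peptide tetramer and anti-CD8 antibody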).
T1 construct: also called E7(11-19) peptide-MHC tetramer; E7 tet
Method: For transfection, the CD4+ and CD4+/CD8+ cell mixtures were transiently transfected with TCR-encoding plasmids and 48 hours after transfection, cells were assessed by flow cytometry for (1) binding of the target peptide in the context of an MHC molecule (HLA:A02:01) by staining with an E6(29-38) peptide- or an E7(11-19) peptide-MHC tetramer reagent, and/or (2) CD8+ independent binding of the target by co-staining the tetramer-labeled cells with an anti-CD8 antibody.

Binder | % cells E7 tet+/CD8+ quadrant [%] | % cells E7 tet+/CD8- quadrant [%]
B1 | 3.82 | 1.88
B2 | 23.4 | 16.7
B3 | 7.84 | 1.37
B4 | 5.54 | 3.06
B5 | 22.6 | 14
B6 | 25.5 | 19.5
B7 | 26.3 | 26
B8 | 14.5 | 7.18
B9 | 12.3 | 2.61
